Common to all, as to conditions: both partners purified
For assay [1], the target named is T1, LHD284B.
T1 construct: de novo designed protomer; BLI: one protomer of the pair was Avi-tagged, biotinylated and immobilised; also called LHD284 protomer B; source: E. coli BL21 LEMO, purified (Ni-NTA, SEC)
Description: BLI; biotinylated protomer on streptavidin biosensors, designed partner in solution; 25 °C; 10 mM HEPES pH 7.4, 150 mM NaCl, 3 mM EDTA, 0.05% Surfactant P20, 1 mg/ml BSA; steady-state fit, 1:1 model. On the technique in general: BLI is a label-free optical method that tracks binding on a fibre tip over time.

Assay [2] addresses T1, LHD284B. The assay is described as follows: BLI; biotinylated protomer on streptavidin biosensors, designed partner in solution; 25 °C; 10 mM HEPES pH 7.4, 150 mM NaCl, 3 mM EDTA, 0.05% Surfactant P20, 1 mg/ml BSA; global kinetic fit, 1:1 model.
Assay [3] concerns the target T2, LHD298B.
T2 construct: de novo designed protomer; BLI: one protomer of the pair was Avi-tagged, biotinylated and immobilised; also called LHD298 protomer B; source: E. coli BL21 LEMO, purified (Ni-NTA, SEC)
Description: BLI; biotinylated protomer on streptavidin biosensors, designed partner in solution; 25 °C; 10 mM HEPES pH 7.4, 150 mM NaCl, 3 mM EDTA, 0.05% Surfactant P20, 1 mg/ml BSA; steady-state fit, 1:1 model.

Assay [4] addresses T2, LHD298B. Description: BLI; biotinylated protomer on streptavidin biosensors, designed partner in solution; 25 °C; 10 mM HEPES pH 7.4, 150 mM NaCl, 3 mM EDTA, 0.05% Surfactant P20, 1 mg/ml BSA; global kinetic fit, 1:1 model.
The target in assay [5] is T3, LHD289B.
T3 construct: de novo designed protomer; BLI: one protomer of the pair was Avi-tagged, biotinylated and immobilised; source: E. coli BL21 LEMO, purified (Ni-NTA, SEC)
The assay is described as follows: BLI; biotinylated protomer on streptavidin biosensors, designed partner in solution; 25 °C; 10 mM HEPES pH 7.4, 150 mM NaCl, 3 mM EDTA, 0.05% Surfactant P20, 1 mg/ml BSA; steady-state fit, 1:1 model.

For assay [6], the target named is T3, LHD289B. The assay is described as follows: BLI; biotinylated protomer on streptavidin biosensors, designed partner in solution; 25 °C; 10 mM HEPES pH 7.4, 150 mM NaCl, 3 mM EDTA, 0.05% Surfactant P20, 1 mg/ml BSA; global kinetic fit, 1:1 model.
For assay [7], the target named is T4, LHD317B.
T4 construct: de novo designed protomer; BLI: one protomer of the pair was Avi-tagged, biotinylated and immobilised; source: E. coli BL21 LEMO, purified (Ni-NTA, SEC)
Description: BLI; biotinylated protomer on streptavidin biosensors, designed partner in solution; 25 °C; 10 mM HEPES pH 7.4, 150 mM NaCl, 3 mM EDTA, 0.05% Surfactant P20, 1 mg/ml BSA; steady-state fit, 1:1 model.

Assay [8] addresses T4, LHD317B. The assay is described as follows: BLI; biotinylated protomer on streptavidin biosensors, designed partner in solution; 25 °C; 10 mM HEPES pH 7.4, 150 mM NaCl, 3 mM EDTA, 0.05% Surfactant P20, 1 mg/ml BSA; global kinetic fit, 1:1 model.
The target in assay [9] is T5, LHD278B.
T5 construct: de novo designed protomer; BLI: one protomer of the pair was Avi-tagged, biotinylated and immobilised; source: E. coli BL21 LEMO, purified (Ni-NTA, SEC)
Description: BLI; biotinylated protomer on streptavidin biosensors, designed partner in solution; 25 °C; 10 mM HEPES pH 7.4, 150 mM NaCl, 3 mM EDTA, 0.05% Surfactant P20, 1 mg/ml BSA; steady-state fit, 1:1 model.

In assay [10] the target is T5, LHD278B. Description: BLI; biotinylated protomer on streptavidin biosensors, designed partner in solution; 25 °C; 10 mM HEPES pH 7.4, 150 mM NaCl, 3 mM EDTA, 0.05% Surfactant P20, 1 mg/ml BSA; global kinetic fit, 1:1 model.
In assay [11] the target is T6, LHD101B (biotin on the Avi-tag where immobilised (Fig. S3D)).
T6 construct: de novo designed protomer; also called LHD101 protomer B; source: E. coli BL21 LEMO, purified (Ni-NTA, SEC)
Description: BLI; biotinylated protomer on streptavidin biosensors, designed partner in solution; 25 °C; 10 mM HEPES pH 7.4, 150 mM NaCl, 3 mM EDTA, 0.05% Surfactant P20, 1 mg/ml BSA; steady-state fit, 1:1 model.

Assay [12] deals with T6, LHD101B. The assay is described as follows: BLI; biotinylated protomer on streptavidin biosensors, designed partner in solution; 25 °C; 10 mM HEPES pH 7.4, 150 mM NaCl, 3 mM EDTA, 0.05% Surfactant P20, 1 mg/ml BSA; global kinetic fit, 1:1 model.
The target in assay [13] is T7, LHD275B.
T7 construct: de novo designed protomer; BLI: one protomer of the pair was Avi-tagged, biotinylated and immobilised; source: E. coli BL21 LEMO, purified (Ni-NTA, SEC)
Description: BLI; biotinylated protomer on streptavidin biosensors, designed partner in solution; 25 °C; 10 mM HEPES pH 7.4, 150 mM NaCl, 3 mM EDTA, 0.05% Surfactant P20, 1 mg/ml BSA; steady-state fit, 1:1 model.

The target of assay [14] is T7, LHD275B. The assay is described as follows: BLI; biotinylated protomer on streptavidin biosensors, designed partner in solution; 25 °C; 10 mM HEPES pH 7.4, 150 mM NaCl, 3 mM EDTA, 0.05% Surfactant P20, 1 mg/ml BSA; global kinetic fit, 1:1 model.
Assay [15] addresses T8, LHD202A.
T8 construct: de novo designed protomer; BLI: one protomer of the pair was Avi-tagged, biotinylated and immobilised; also called LHD202 protomer A; source: E. coli BL21 LEMO, purified (Ni-NTA, SEC)
The assay is described as follows: BLI; biotinylated protomer on streptavidin biosensors, designed partner in solution; 25 °C; 10 mM HEPES pH 7.4, 150 mM NaCl, 3 mM EDTA, 0.05% Surfactant P20, 1 mg/ml BSA; steady-state fit, 1:1 model.

In assay [16] the target is T8, LHD202A. Description: BLI; biotinylated protomer on streptavidin biosensors, designed partner in solution; 25 °C; 10 mM HEPES pH 7.4, 150 mM NaCl, 3 mM EDTA, 0.05% Surfactant P20, 1 mg/ml BSA; global kinetic fit, 1:1 model.
T8 sequence (main, as listed by the source): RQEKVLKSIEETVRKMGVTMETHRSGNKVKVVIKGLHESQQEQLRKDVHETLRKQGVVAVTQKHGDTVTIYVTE

B1: LHD284A (designed binder)
chain: TDELLERLRQLFEELHERGTIIIVEVHINGERQTKYLILAPKEELKKHLERIREKIEREGSSEVEVKVTSGGTTWTFNEK
Regarding B1, the Kd with LHD284B [1] came to 97 ± 13 nM. In the assay with LHD284B [2], this molecule came in with a Kd of 8.9 ± 0.13 nM, a koff of 0.0012 s⁻¹ and a kon of 130000 M⁻¹ s⁻¹.

B2: LHD298A (designed binder)
chain: GRQEKVLKSIEETVRKMGVTMETHRSGNTVKVVIKGLHESQQEQLHKDVEETVQKEGVFVLVSHHGDTVTIQVYE
In the assay with LHD298B [3], B2 showed a Kd of 16 ± 3 nM. In the assay with LHD298B [4], this molecule returned a Kd of 3.5 ± 0.01 nM, a koff of 0.00022 s⁻¹ and an on-rate (kon) of 64000 M⁻¹ s⁻¹.

B3: LHD289A (designed binder)
chain: GRQEKVLKSIEETVRKMGVTMLTHRHGNVVFVVILGLHKQQALQLLRDVHRTAHKQGVTLSITFSGDIVVIAVTVGASEEEKKEVRKIVKEIAKQLRHAETEEEAKEIVQRVIEEWQEEG
In the assay with LHD289B [5], B3 showed a Kd of 610 ± 120 nM. Further, in the assay with LHD289B [6], the Kd came to 1080 ± 39 nM, the off-rate constant (koff) turned out to be 0.057 s⁻¹ and the kon worked out at 53000 M⁻¹ s⁻¹.

B4: LHD317A (designed binder)
chain: GRQEKVLKSIEETVRKMGVRMLTHRGGNAVIVVIEGLHPSQAEQLLRDVHRTAKKQGVTVHLVFTGDIVVIMVVVGASEEEQEEMHRLVREIAEALHEAKRKGANEEQLEQLLRELLERAEREG
In the assay with LHD317B [7], B4 displayed a dissociation constant (Kd) of 56 ± 2.3 nM. Besides, in the assay with LHD317B [8], the Kd is 34.7 ± 0.05 nM, the koff was 0.0051 s⁻¹ and the kon is 150000 M⁻¹ s⁻¹.

B5: LHD278A (designed binder)
chain: GRQEKVLKSIEETVRKMGVRMLTHRGGNAVIVVIEGLHPSQIKQLMQDVIKTAKKQGVTVTITVSGDIVVIMVVVGASDEEQEEARRLVQEIARALQEAKRKGANEEQLEQLLRELLERAEREG
B5: the Kd with LHD278B [9] stood at 3.4 ± 0.69 nM. In the assay with LHD278B [10], this molecule showed a Kd of 0.8 ± 0.003 nM, an off-rate (koff) of 0.00022 s⁻¹ and an on-rate constant (kon) of 290000 M⁻¹ s⁻¹.

B6: LHD101A (designed binder)
chain: GRQEKVLKSIEETVRKMGVTMETHRSGNEVKVVIKGLHIKQQRQLYRDVRETSKKQGVETEIEVEGDTVTIVVRE
modifications: biotin on the Avi-tag where immobilised (Fig. S3D, S24B)
B6: in the assay with LHD101B [11], the Kd stood at 9.5 ± 0.76 nM. In the assay with LHD101B [12], this molecule yielded a Kd of 1.9 ± 0.04 nM, a koff of 0.0043 s⁻¹ and a kon of 2.2e+06 M⁻¹ s⁻¹.

B7: LHD275A (designed binder)
chain: GRQEKVLKSIEETVRKMGVEMLTFRAGNAVIVVIRGLHPEQAKQLLRDVSQTAHKQGVTVTLTFHGDVVFILVLVGASEEEQKHMQERIQELARIIHEAKRRGVSEEQLREIAEKMAKEIQEWG
Regarding B7, the Kd in the assay with LHD275B [13] turned out to be 4.5 ± 0.22 nM. In the assay with LHD275B [14], this molecule displayed an equilibrium dissociation constant (Kd) of 2.9 ± 0.01 nM, a koff of 0.00041 s⁻¹ and an on-rate constant (kon) of 140000 M⁻¹ s⁻¹.

B8: LHD202B (designed binder)
chain: SVEFHIVNISEEQRQRIEEYVRRISKKEGTEVRFEKRDGELTIEVKNLHEKRLQEILEYIERVNK
In the assay with LHD202A [15], B8 came in with a Kd of 2400 ± 170 nM. In the assay with LHD202A [16], the Kd amounted to 4.8 ± 0.25 µM, the off-rate (koff) came to 0.29 ± 0.05 s⁻¹ and the kon came to 60000 M⁻¹ s⁻¹.

By Kd is commonly meant the equilibrium constant for the complex coming apart. What is called koff is the rate constant with which the complex falls apart. A higher koff goes with fast dissociation. As usually defined, the kon is the rate constant with which the complex forms.

The values are drawn from PMC9881579, “Reconfigurable asymmetric protein assemblies through implicit negative design” (Science (New York, N.Y.), 2022).
